Substitutions are numbered along the chain they refer to.
T1: TGFβ3 (R&D Systems)
T1 sequence (P10600 301-412, species assumed, looked up): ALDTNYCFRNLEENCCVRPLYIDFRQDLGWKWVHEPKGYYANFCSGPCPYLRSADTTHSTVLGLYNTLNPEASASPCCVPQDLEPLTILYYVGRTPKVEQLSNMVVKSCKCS

T2: TGFβ2 (R&D Systems)
T2 sequence (P61812 303-414, species assumed, looked up): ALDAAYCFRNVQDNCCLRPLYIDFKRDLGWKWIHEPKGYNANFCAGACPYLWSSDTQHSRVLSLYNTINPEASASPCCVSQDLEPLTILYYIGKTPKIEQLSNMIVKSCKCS

B1: Caninized anti-TGFβ1,2,3 antibody VH4.11 - VL3 (antibody, V domains shown)
VH: QVQLVQSGAEVKKPGSSVKVSCKASGYTFSSNVISWVRQAPGKGLQWVGGVIPIVDIANYAQRFKGRVTLTADTSTNTVYMELSNLRTEDTAVYYCARTLGLVLDAMDYWGQGTLVTVSS
VL: EIVMTQSPASLSLSQEEKVTITCRASQSLGSSYLAWYQQKPGQAPKLLIYGASSRAPGVPSRFSGSGSGTDFSFTISSLEPEDVAVYYCQQYADSPITFGQGTKLEIKR
B2: Caninized anti-TGFβ1,2,3 antibody VH5.10 - VL3 (antibody, V domains shown)
VH: EVQLVESGGDLVKPGGSLRLSCVASGFTFSSNVISWVRQAPGQGLEWMGGVIPIVDIANYAQRFKGRVTLTADTSTNTVYMELSNLRTEDTAVYYCARTLGLVLDAMDYWGQGTLVTVSS
VL: B1 VL
B3: Caninized anti-TGFβ1,2,3 antibody VH4.5 - VL1 (antibody, V domains shown)
VH: EVQLVESGGDLVKPAGSLRLSCVASGYTFSSNVMSWVRQAPGKGLQWVGYVIPIVDIANYADAVKGRFTISRDNAKNTLYLQMNSLRVEDTAVYYCTRTLGLVLDAMDYWGQGTLVTVSS
VL: ETVLTQSPGTLSLSPGERATLSCRASQSLGSSYLAWYQQKPGQAPRLLIYGASSRAPGIPDRFSGSGSGTDFTLTISRLEPEDFAVYYCQQYADSPITFGQGTRLEIKR
B4: Caninized anti-TGFβ1,2,3 antibody VH3.1 - VL2 (ZTS-122) (antibody, V domains shown)
VH: DVQLVESGGDLVKPGGSLRLTCVASGYTFSSNVMHWVRQAPGKGLQWVAYVIPIVDIAYYADSVKGRFTISIDNSKNTLYLQMNSLKTEDTATYYCARTLGLVLDAMDYWGQGTLVTVSS
VL: B3 VL with I59V, D61A, R78S, R104K
B5: Caninized anti-TGFβ1,2,3 antibody VH3.5 - VL2 (antibody, V domains shown)
VH: EVQLVQSAAEVKKPGASVKVSCKTSGYIFISNVISWVQQAPGAGLEWMGGVIPIVDIANYAQRFKGRVTLTADTSTNTVYMELSNLRTEDTAVYYCASTLGLVLDAMDYWGQGTLVTVSS
VL: B3 VL with I59V, D61A, R78S, R104K
B6: Caninized anti-TGFβ1,2,3 antibody VH4.5 - VL2 (ZTS-207) (antibody, V domains shown)
VH: B3 VH
VL: B3 VL with I59V, D61A, R78S, R104K
B7: Caninized anti-TGFβ1,2,3 antibody VH3.6 - VL2 (antibody, V domains shown)
VH: B5 VH with Q38R, A43Q, L70I, T74E, N77S, V79T, N85S, T88S
VL: B3 VL with I59V, D61A, R78S, R104K
B8: Caninized anti-TGFβ1,2,3 antibody VH4.7 - VL2 (antibody, V domains shown)
VH: B1 VH with L70I, T74E, N77S, V79T, N85S, T88S, R98S
VL: B3 VL with I59V, D61A, R78S, R104K
B9: Caninized anti-TGFβ1,2,3 antibody VH4.11 - VL2 (antibody, V domains shown)
VH: B1 VH
VL: B3 VL with I59V, D61A, R78S, R104K
B10: Caninized anti-TGFβ1,2,3 antibody VH5.6 - VL2 (antibody, V domains shown)
VH: B2 VH with L70I, T74E, N77S, V79T, N85S, T88S, R98S
VL: B3 VL with I59V, D61A, R78S, R104K
B11: Caninized anti-TGFβ1,2,3 antibody VH3.1 - VL3 (antibody, V domains shown)
VH: B4 VH
VL: B1 VL
B12: human: feline GC1008 chimera felchimGC1008 (antibody, V domains shown)
VH: QVQLVQSGAEVKKPGSSVKVSCTASGYTPSSNVISNVRQAPGQGLENNGGVIPIVDIANYAQRPKGRVTITADESTSTTYHELSSLRSEDTAVYYCASTLGLVLDAMDYHGQGTLVTVSS
VL: B3 VL
B13: Felinized anti-TGFβ1,2,3 antibody VH2.1 - VL3 (antibody, V domains shown)
VH: QVLLVQSGADVRKPGASVKIFCKASGYTFTSNVISWVRQTPAQGFEWMGGVIPIVDIANYAQRFKGRLVLTADTSTNTAYMELRSLKSADTAVYYCASTLGLVLDAMDYWGQGSLVTVSS
VL: EIQMTQSPSSLSASPGDRVTITCRASQSLGSSYLAWYQQKPGKVPKLLIYGASSRAPGVPSRFSGSGSGTDFTLTISSLEPEDAATYYCQQYADSPITFGQGTKLEIKR
B14: Felinized anti-TGFβ1,2,3 antibody VH6.1 - VL3 (antibody, V domains shown)
VH: QVLLVQSGAEVRTPGASVKIFCKASGYGFTSNVISWVRQSPAQGLEWMGGVIPIVDIANYAQRFKGRLTLTADTSTDTAYMELSSLRSADTAMYYCASTLGLVLDAMDYWGQGTLVTVSS
VL: B13 VL
B15: Felinized anti-TGFβ1,2,3 antibody VH2.2 - VL3 (antibody, V domains shown)
VH: B13 VH with T30S, I34M, S35H, G50S, N59T, Q62R, K65Q, S98R
VL: B13 VL
B16: Felinized anti-TGFβ1,2,3 antibody VH2.8 - VL6 (antibody, V domains shown)
VH: B13 VH with L3Q, D10E, R12K, A16S, I20V, F21S, T30S, S114T
VL: QSVLTQPPSVSGSLGQRVTISCRASQSLGSSYLAWYQQVPGRAPRLLIYGASSRAPGIPDRFSGSKSGTSGSLTITGLEADDEADYYCQQYADSPITFGGGTHLTVLG

These binders were tested against TGFβ1 (R&D Systems) (assay: SPR (Biacore T200), TGFβ amine-coupled to chip, 1:1 fit).
TGFβ1 (R&D Systems), sequence (P01137 279-390): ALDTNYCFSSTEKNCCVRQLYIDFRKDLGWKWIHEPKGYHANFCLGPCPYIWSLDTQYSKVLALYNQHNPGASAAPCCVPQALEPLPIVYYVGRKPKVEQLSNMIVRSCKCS

B1 and B2 are within 1.5-fold of each other in Kd: 7.14 nM for the first, 5.23 nM for the second.

Compared with B3, B4 is 2.2-fold higher in Kd: 2.57 nM for the first, 5.6 nM for the second.

Compared with B5, B6 is 1.9-fold lower in Kd: 4.37 nM for the first, 2.3 nM for the second. The second binds more tightly here.

First: B7
Second: B8
The Kd of the first is 1.7-fold higher: 4.39 nM for the first, 2.61 nM for the second. The second binds more tightly here.

B9 and B10 are within 1.5-fold of each other in Kd: 4.98 nM for the first, 3.68 nM for the second.

Compared with B11, B12 is 2.9-fold lower in Kd: 7.52 nM for the first, 2.58 nM for the second.

B13 and B14 are within 1.5-fold of each other in Kd: 2.89 nM for the first, 3.54 nM for the second.

B15 and B16 are within 1.5-fold of each other in Kd: 3.31 nM for the first, 2.95 nM for the second.

The binders below were run against T1, TGFβ3 (R&D Systems) in the same assay as above.

First: B1
Second: B2
The Kd of the first is 1.7-fold higher: 2.5 nM for the first, 1.5 nM for the second. The second binds more tightly here.

First: B3
Second: B4
The Kd of the first is 2.4-fold lower: 0.475 nM for the first, 1.12 nM for the second. The first binds more tightly here.

Going from B5 to B6, the Kd falls from 1.91 nM to 0.43 nM (4.4-fold). The second binds more tightly here.

B7 and B8 are within 1.5-fold of each other in Kd: 1.49 nM for the first, 1.2 nM for the second.

B9 and B10 are within 1.5-fold of each other in Kd: 2.1 nM for the first, 1.67 nM for the second.

First: B11
Second: B12
The Kd of the first is 2.4-fold lower: 0.981 nM for the first, 2.35 nM for the second.

B13 and B14 are within 1.5-fold of each other in Kd: 2.6 nM for the first, 3.57 nM for the second.

B15 and B16 are within 1.5-fold of each other in Kd: 3.49 nM for the first, 2.41 nM for the second.

The binders below were run against T2, TGFβ2 (R&D Systems) in the same assay as above.

B1 and B2 are within 1.5-fold of each other in Kd: 5.15 nM for the first, 3.57 nM for the second.

Going from B3 to B4, the Kd rises from 1.56 nM to 3.37 nM (2.2-fold).

Compared with B5, B6 is 2.5-fold lower in Kd: 3.56 nM for the first, 1.4 nM for the second.

Compared with B7, B8 is 1.7-fold lower in Kd: 3.42 nM for the first, 1.99 nM for the second. The second binds more tightly here.

B9 and B10 are within 1.5-fold of each other in Kd: 3.77 nM for the first, 2.6 nM for the second.

Compared with B11, B12 is 2.1-fold lower in Kd: 3.91 nM for the first, 1.88 nM for the second. The second binds more tightly here.

Going from B13 to B14, the Kd rises from 1.91 nM to 2.99 nM (1.6-fold). The first binds more tightly here.

B15 and B16 are within 1.5-fold of each other in Kd: 2.39 nM for the first, 1.72 nM for the second.

Each binder was assayed against TGFβ1 (R&D Systems) (assay: cell-based or functional assay).

Going from B1 to B2, the TGFb1 IC50 (SMAD3 phosphorylation in CMVICs, AlphaLISA) falls from 1.01 µg/mL to 0.232 µg/mL (4.4-fold).

Compared with B3, B4 is 2-fold lower in TGFb1 IC50 (SMAD3 phosphorylation in CMVICs, AlphaLISA): 0.122 µg/mL for the first, 0.061 µg/mL for the second.

B5 and B6 are within 1.5-fold of each other in TGFb1 IC50 (SMAD3 phosphorylation in CMVICs, AlphaLISA): 0.083 µg/mL for the first, 0.06 µg/mL for the second.

B7 and B8 are within 1.5-fold of each other in TGFb1 IC50 (SMAD3 phosphorylation in CMVICs, AlphaLISA): 0.057 µg/mL for the first, 0.071 µg/mL for the second.

First: B9
Second: B10
The TGFb1 IC50 (SMAD3 phosphorylation in CMVICs, AlphaLISA) of the first is 8.6-fold higher: 0.164 µg/mL for the first, 0.019 µg/mL for the second.

B11 and B12 are within 1.5-fold of each other in TGFb1 IC50 (SMAD3 phosphorylation in CMVICs, AlphaLISA): 0.134 µg/mL for the first, 0.176 µg/mL for the second.

B13 and B14 are within 1.5-fold of each other in TGFb1 IC50 (SMAD3 phosphorylation in CMVICs, AlphaLISA): 0.597 µg/mL for the first, 0.425 µg/mL for the second.

Compared with B15, B16 is 4-fold higher in TGFb1 IC50 (SMAD3 phosphorylation in CMVICs, AlphaLISA): 0.24 µg/mL for the first, 0.969 µg/mL for the second.

The binders below were run against T1, TGFβ3 (R&D Systems) (assay: cell-based or functional assay).

Compared with B1, B2 is 5.1-fold lower in TGFb3 IC50 (SMAD3 phosphorylation in CMVICs, AlphaLISA): 0.575 µg/mL for the first, 0.113 µg/mL for the second.

B3 and B4 are within 1.5-fold of each other in TGFb3 IC50 (SMAD3 phosphorylation in CMVICs, AlphaLISA): 0.062 µg/mL for the first, 0.092 µg/mL for the second.

Compared with B5, B6 is 49-fold lower in TGFb3 IC50 (SMAD3 phosphorylation in CMVICs, AlphaLISA): 0.981 µg/mL for the first, 0.02 µg/mL for the second.

Compared with B7, B9 is 1.8-fold higher in TGFb3 IC50 (SMAD3 phosphorylation in CMVICs, AlphaLISA): 0.203 µg/mL for the first, 0.375 µg/mL for the second.

Compared with B10, B11 is 1.6-fold lower in TGFb3 IC50 (SMAD3 phosphorylation in CMVICs, AlphaLISA): 0.056 µg/mL for the first, 0.034 µg/mL for the second.

Compared with B12, B13 is 2.5-fold higher in TGFb3 IC50 (SMAD3 phosphorylation in CMVICs, AlphaLISA): 0.053 µg/mL for the first, 0.132 µg/mL for the second.

For B14, the TGFb3 IC50 (SMAD3 phosphorylation in CMVICs, AlphaLISA) was 0.014 µg/mL.

The binders below were run against T2, TGFβ2 (R&D Systems) (assay: cell-based or functional assay).

Going from B1 to B2, the TGFb2 IC50 (SMAD3 phosphorylation in CMVICs, AlphaLISA) falls from 16.7 µg/mL to 5.47 µg/mL (3.1-fold).

B3 and B4 are within 1.5-fold of each other in TGFb2 IC50 (SMAD3 phosphorylation in CMVICs, AlphaLISA): 0.609 µg/mL for the first, 0.508 µg/mL for the second.

Compared with B5, B6 is 33-fold lower in TGFb2 IC50 (SMAD3 phosphorylation in CMVICs, AlphaLISA): 9.41 µg/mL for the first, 0.285 µg/mL for the second.

Going from B7 to B8, the TGFb2 IC50 (SMAD3 phosphorylation in CMVICs, AlphaLISA) rises from 0.459 µg/mL to 0.81 µg/mL (1.8-fold).

Compared with B9, B10 is 12-fold lower in TGFb2 IC50 (SMAD3 phosphorylation in CMVICs, AlphaLISA): 8.48 µg/mL for the first, 0.691 µg/mL for the second.

First: B11
Second: B12
The TGFb2 IC50 (SMAD3 phosphorylation in CMVICs, AlphaLISA) of the first is 5.7-fold higher: 0.954 µg/mL for the first, 0.167 µg/mL for the second.

B13 and B14 are within 1.5-fold of each other in TGFb2 IC50 (SMAD3 phosphorylation in CMVICs, AlphaLISA): 0.277 µg/mL for the first, 0.223 µg/mL for the second.

First: B15
Second: B16
The TGFb2 IC50 (SMAD3 phosphorylation in CMVICs, AlphaLISA) of the first is 2.2-fold higher: 1.2 µg/mL for the first, 0.547 µg/mL for the second.
